{
  "source": "paper PMC8079451",
  "about": "“Phosphopeptide interactions of the Nbs1 N-terminal FHA-BRCT1/2 domains” (Scientific Reports, 2021)",
  "assay_in_all_cases": "fluorescence polarisation; 100 nM FITC-labeled phosphopeptide with increasing hsNbs1(384); room temperature, 15 min incubation; 25 mM HEPES pH 7.4, 150 mM NaCl, 1 mM EDTA, 2 mM DTT, 0.05% Tween20, 0.1% BSA; one-site model",
  "settings_in_all_cases": "both partners purified",
  "key": {"hsNbs1(384) R28A": {"molecular_target": "T1, hsNbs1(384) R28A (human, UniProt O60934 1-384, R28A)", "T1 construct": "source: E. coli BL21(DE3) pLacI, purified as the wild type", "T1 sequence (looked up)": "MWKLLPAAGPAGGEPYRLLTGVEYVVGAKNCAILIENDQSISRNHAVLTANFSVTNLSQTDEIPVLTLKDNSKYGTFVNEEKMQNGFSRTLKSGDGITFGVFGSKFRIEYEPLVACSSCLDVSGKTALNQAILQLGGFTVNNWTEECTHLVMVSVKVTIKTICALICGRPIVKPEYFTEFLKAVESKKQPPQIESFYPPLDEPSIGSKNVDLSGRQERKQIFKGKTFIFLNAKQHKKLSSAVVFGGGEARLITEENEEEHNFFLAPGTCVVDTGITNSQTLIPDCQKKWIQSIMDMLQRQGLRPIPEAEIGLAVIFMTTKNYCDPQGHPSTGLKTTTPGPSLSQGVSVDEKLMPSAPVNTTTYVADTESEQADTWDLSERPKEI"}, "hsNbs1(384) K29A": {"molecular_target": "T2, hsNbs1(384) K29A (human, UniProt O60934 1-384, K29A)", "T2 construct": "source: E. coli BL21(DE3) pLacI, purified as the wild type", "T2 sequence (looked up)": "T1 sequence (looked up) with A28R, K29A"}, "[1]": {"molecular_target": "T3, hsNbs1(384), the N-terminal 384 residues of homo sapiens Nbs1 containing the FHA-BRCT1-BRCT2 domains (human, UniProt O60934 1-384)", "T3 construct": "gene optimised for E. coli, cloned into pET30a (NdeI/HindIII); also called wt; source: E. coli BL21(DE3) pLacI, purified (Ni-NTA, HiTrap Q, Superdex 75)", "T3 sequence (looked up)": "T1 sequence (looked up) with A28R"}, "hsNbs1(384) K73A": {"molecular_target": "T4, hsNbs1(384) K73A (human, UniProt O60934 1-384, K73A)", "T4 construct": "source: E. coli BL21(DE3) pLacI, purified as the wild type", "T4 sequence (looked up)": "T1 sequence (looked up) with A28R, K73A"}, "hsNbs1(384) R43A": {"molecular_target": "T5, hsNbs1(384) R43A (human, UniProt O60934 1-384, R43A)", "T5 construct": "source: E. coli BL21(DE3) pLacI, purified as the wild type", "T5 sequence (looked up)": "T1 sequence (looked up) with A28R, R43A"}},
  "note": "Positions count from the first letter of the chain named. Square brackets hold non-standard residues; d marks the D form. Primed or numbered codes have the meaning given here. Ends that are not written are not given here. FITC′ = fluorescein isothiocyanate label; pT = C[C@@H](OP(=O)(O)O)[C@H](N)C(=O)O",
  "data": [
    {"binder": "{FITC′}-GGRYIPPN[pT]PENFWEVGFPEEQ", "note": "[hsCtIP phosphopeptide R841YIPPNpTPENFWEVGFPEEQ860 with N-terminal FITC-Gly-Gly]", "values": [
      {"measurement": "Kd", "setting": "hsNbs1(384) R28A", "result": 35.9, "unit": "µM"},
      {"measurement": "Kd", "setting": "hsNbs1(384) K29A", "result": 26, "unit": "µM"},
      {"measurement": "Kd", "setting": "[1]", "result": 20, "unit": "µM"},
      {"measurement": "Kd", "setting": "hsNbs1(384) K73A", "result": 32.9, "unit": "µM"},
      {"measurement": "Kd", "setting": "hsNbs1(384) R43A", "result": 29.2, "unit": "µM"}
    ]}
  ]
}
